Residue numbers refer to the chain shown, from its start. Names and notes keep the numbering of the source. Values belong to the binder of their own block, whether it stands above or below them.
Key:
[1] = target: T1, CD28 on Jurkat/IL2 reporter cells (human, UniProt P10747 19-220); test: flow cytometry, Jurkat cells (CD28)
T1 construct: whole, on cells; Endogenous CD28 of Jurkat cells; also called Jurkats (CD28)

[2] = target: T2, human PD-L1 on CHO cells (human, UniProt Q9NZQ7 19-290); test: flow cytometry; PD-L1 MFI over CD28 MFI
T2 construct: whole, on cells; CHO cells stably expressing PD-L1; also called huPD-L1
T2 sequence (Q9NZQ7 19-290): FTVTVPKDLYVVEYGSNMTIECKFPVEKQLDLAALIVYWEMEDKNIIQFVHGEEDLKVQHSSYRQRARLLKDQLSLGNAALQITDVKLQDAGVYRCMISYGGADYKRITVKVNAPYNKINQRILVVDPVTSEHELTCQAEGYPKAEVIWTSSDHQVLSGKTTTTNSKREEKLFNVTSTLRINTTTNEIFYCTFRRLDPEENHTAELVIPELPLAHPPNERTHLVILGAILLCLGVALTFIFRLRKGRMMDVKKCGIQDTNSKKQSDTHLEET

[3] = target: T3, human CTLA4 on CHO cells (human, UniProt P16410 36-223); test: flow cytometry, CHO cells stably expressing CTLA4
T3 construct: whole, on cells; CHO cells stably expressing CTLA4; also called huCTLA4
T3 sequence (P16410 36-223): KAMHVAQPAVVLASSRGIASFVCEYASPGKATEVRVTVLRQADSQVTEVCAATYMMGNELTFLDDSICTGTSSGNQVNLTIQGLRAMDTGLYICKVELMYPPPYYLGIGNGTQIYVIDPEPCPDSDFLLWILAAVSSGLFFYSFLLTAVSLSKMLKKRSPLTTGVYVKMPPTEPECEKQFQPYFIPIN

[4] = target: T2, human PD-L1 on CHO cells; test: flow cytometry, CHO cells stably expressing PD-L1
[5] = target: T3, human CTLA4 on CHO cells; test: flow cytometry, CHO/CTLA4 cells; MFI relative to WT CD80
[6] = target: T2, human PD-L1 on CHO cells; test: flow cytometry, CHO/PD-L1 cells; MFI relative to WT CD80
[7] = target: T1, CD28 on Jurkat/IL2 reporter cells; test: flow cytometry, Jurkat cells (CD28); MFI relative to WT CD80
[8] = target: T4, CD28 endogenously expressed on Jurkat/IL2 reporter cells (human, UniProt P10747 19-220); test: flow cytometry, Jurkat cells (CD28), Fc fusion at 33.3 nM
T4 construct: whole, on cells; Target on Jurkat cells; also called Jurkats (CD28)

[9] = target: T5, human PD-L1 expressed on CHO cells (human, UniProt Q9NZQ7 19-290); test: flow cytometry, CHO cells stably expressing PD-L1, Fc fusion at 33.3 nM
T5 construct: whole, on cells; Target on CHO cells stably expressing PD-L1; also called huPD-L1
T5 sequence (Q9NZQ7 19-290): as the sequence (Q9NZQ7 19-290) above

[10] = target: T6, human CTLA4 (huCTLA4), full-length, stably expressed on CHO cells (human, UniProt P16410 36-223); test: flow cytometry, CHO cells expressing huCTLA4
T6 construct: whole, on cells
T6 sequence (P16410 36-223): as the sequence (P16410 36-223) above

[11] = target: T7, human PD-L1 (huPD-L1), full-length, stably expressed on CHO cells (human, UniProt Q9NZQ7 19-290); test: flow cytometry, CHO cells expressing huPD-L1
T7 construct: whole, on cells
T7 sequence (Q9NZQ7 19-290): as the sequence (Q9NZQ7 19-290) above

- MFI at 33.3 nM [1]: 66 MFI
- Ratio of PDL1:CD28 [2]: 1 ratio
- MFI at 33.3 nM [3]: 1920 MFI
- MFI at 33.3 nM [4]: 70.3 MFI
- Fold change to WT CD80 [5]: 1 fold
- Fold change to WT CD80 [6]: 1 fold
- Fold change to WT CD80 [7]: 1 fold
B1: CD80 WT IgV-Fc (Fc fusion, not shown: a dimerising Fc or GST)
chain: VIHVTKEVKEVATLSCGHNVSVEELAQTRIYWQKEKKMVLTMMSGDMNIWPEYKNRTIFDITNNLSIVILALRPSDEGTYECVVLKYEKDAFKREHLAEVTLSVKAD
notes: also called WT CD80 IgV-Fc; wild-type CD80 IgV-Fc

- MFI at 33.3 nM [1]: 1000 MFI
- Ratio of PDL1:CD28 [2]: 4 ratio
- MFI at 33.3 nM [3]: 21400 MFI
- MFI at 33.3 nM [4]: 3790 MFI
- Fold change to WT CD80 [5]: 11.2 fold
- Fold change to WT CD80 [6]: 53.9 fold
- Fold change to WT CD80 [7]: 15.2 fold
B2: variant CD80 IgV-Fc E35D/D46E/M47I (Fc fusion, not shown: a dimerising Fc or GST)
chain: B1 chain with E35D, D46E, M47I

- MFI at 33.3 nM [1]: 816 MFI
- Ratio of PDL1:CD28 [2]: 7 ratio
- MFI at 33.3 nM [3]: 25900 MFI
- MFI at 33.3 nM [4]: 5630 MFI
- Fold change to WT CD80 [5]: 13.5 fold
- Fold change to WT CD80 [6]: 80 fold
- Fold change to WT CD80 [7]: 12.4 fold
B3: variant CD80 IgV-Fc E35D/M47I/N48K/I61F (Fc fusion, not shown: a dimerising Fc or GST)
chain: B1 chain with E35D, M47I, N48K, I61F

- MFI at 33.3 nM [8]: 1530 MFI
- MFI at 33.3 nM [9]: 17400 MFI
B4: CD80 E35D/N48K/V68M/K89N IgV-Fc (Fc fusion, not shown: small tags and cut ends; a dimerising Fc or GST)
chain: B1 chain with E35D, N48K, V68M, K89N

- MFI at 33.3 nM [10]: 15500 MFI
- MFI at 33.3 nM [11]: 1720 MFI
B5: variant CD80 IgV-Fc E35D/D46E/M47V/V68M/L85Q (Fc fusion, not shown: small tags and cut ends; a dimerising Fc or GST)
chain: B1 chain with E35D, D46E, M47V, V68M, L85Q

- MFI at 33.3 nM [1]: 779 MFI
- Ratio of PDL1:CD28 [2]: 5 ratio
- MFI at 33.3 nM [3]: 27900 MFI
- MFI at 33.3 nM [4]: 3760 MFI
- Fold change to WT CD80 [5]: 14.6 fold
- Fold change to WT CD80 [6]: 53.4 fold
- Fold change to WT CD80 [7]: 11.8 fold
B6: variant CD80 IgV-Fc E35D/D46E (Fc fusion, not shown: a dimerising Fc or GST)
chain: B1 chain with E35D, D46E

- MFI at 33.3 nM [1]: 528 MFI
- Ratio of PDL1:CD28 [2]: 14 ratio
- MFI at 33.3 nM [3]: 24200 MFI
- MFI at 33.3 nM [4]: 7580 MFI
- Fold change to WT CD80 [5]: 12.6 fold
- Fold change to WT CD80 [6]: 108 fold
- Fold change to WT CD80 [7]: 8 fold
B7: variant CD80 IgV-Fc H18Y/E35D/M47L/A71G/A91S (Fc fusion, not shown: a dimerising Fc or GST)
chain: B1 chain with H18Y, E35D, M47L, A71G, A91S

- MFI at 33.3 nM [1]: 72.4 MFI
- Ratio of PDL1:CD28 [2]: 30 ratio
- MFI at 33.3 nM [3]: 30300 MFI
- MFI at 33.3 nM [4]: 2190 MFI
- Fold change to WT CD80 [5]: 15.8 fold
- Fold change to WT CD80 [6]: 31.2 fold
- Fold change to WT CD80 [7]: 1.1 fold
B8: variant CD80 IgV-Fc E35D/T41S/N48I (Fc fusion, not shown: a dimerising Fc or GST)
chain: B1 chain with E35D, T41S, N48T
notes: also called E35D/T41S/N48T

- MFI at 33.3 nM [10]: 17000 MFI
B9: variant CD80 IgV-Fc E35D/D46E/M47I/T62A/V68M/L85M/Y87C (Fc fusion, not shown: small tags and cut ends; a dimerising Fc or GST)
chain: B1 chain with E35D, D46E, M47I, T62A, V68M, L85M, Y87C

- MFI at 33.3 nM [1]: 230 MFI
- Ratio of PDL1:CD28 [2]: 12 ratio
- MFI at 33.3 nM [3]: 27900 MFI
- MFI at 33.3 nM [4]: 2700 MFI
- Fold change to WT CD80 [5]: 14.6 fold
- Fold change to WT CD80 [6]: 38.5 fold
- Fold change to WT CD80 [7]: 3.5 fold
B10: variant CD80 IgV-Fc Q27L/E35D/M47V/I61V/L85M (Fc fusion, not shown: a dimerising Fc or GST)
chain: B1 chain with Q27L, E35D, M47V, I61V, L85M

- MFI at 33.3 nM [1]: 479 MFI
- Ratio of PDL1:CD28 [2]: 7 ratio
- MFI at 33.3 nM [3]: 26300 MFI
- MFI at 33.3 nM [4]: 3530 MFI
- Fold change to WT CD80 [5]: 13.7 fold
- Fold change to WT CD80 [6]: 50.2 fold
- Fold change to WT CD80 [7]: 7.3 fold
B11: variant CD80 IgV-Fc H18Y/E35D (Fc fusion, not shown: a dimerising Fc or GST)
chain: B1 chain with H18Y, E35D

- MFI at 33.3 nM [1]: 1000 MFI
- Ratio of PDL1:CD28 [2]: 8 ratio
- MFI at 33.3 nM [3]: 23300 MFI
- MFI at 33.3 nM [4]: 7760 MFI
- Fold change to WT CD80 [5]: 12.2 fold
- Fold change to WT CD80 [6]: 110 fold
- Fold change to WT CD80 [7]: 15.2 fold
B12: variant CD80 IgV-Fc M43I/M47L/A71G (Fc fusion, not shown: a dimerising Fc or GST)
chain: B1 chain with M43I, M47L, A71G

- MFI at 33.3 nM [8]: 2120 MFI
- MFI at 33.3 nM [9]: 21600 MFI
B13: CD80 E35D/D46V/M47V/V68M/K89N IgV-Fc (Fc fusion, not shown: small tags and cut ends; a dimerising Fc or GST)
chain: B1 chain with E35D, D46V, M47V, V68M, K89N

From patent US20210130436A1 (published 2021)
